Measurements as given in article PMC3988567.

Molecular target: ZnF-UBP domain from USP5 (human) (UniProt P45974)
Assay: ITC

Sequence of ZnF-UBP domain from USP5 (human) (P45974 163-291): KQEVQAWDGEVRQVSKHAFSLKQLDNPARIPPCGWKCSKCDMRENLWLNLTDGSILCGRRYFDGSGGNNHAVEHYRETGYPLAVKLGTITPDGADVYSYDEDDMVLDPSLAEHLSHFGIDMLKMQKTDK

stoichiometry N: 1
Substance: ubiquitin (from UniProt P0CG48 1-76) (natural protein)
